Target: human TIGIT expressed on HEK293A cells (human) (UniProt Q495A1)
Assay: cell-based or functional assay

Sequence of human TIGIT expressed on HEK293A cells (human) (Q495A1 22-244 limits assumed): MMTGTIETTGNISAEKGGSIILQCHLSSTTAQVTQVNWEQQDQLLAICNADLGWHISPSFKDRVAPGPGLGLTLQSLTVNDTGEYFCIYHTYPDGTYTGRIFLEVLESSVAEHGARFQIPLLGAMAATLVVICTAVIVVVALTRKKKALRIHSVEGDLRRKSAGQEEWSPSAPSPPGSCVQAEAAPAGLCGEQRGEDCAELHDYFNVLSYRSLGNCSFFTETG

- NK92-mediated ADCC against HEK293A/human TIGIT cells, EC50: 0.0236 nM
B1: Etigilimab (antibody, INN chains, looked up, human IgG1, V domains shown)
VH: QVQLQESGPGLVKPSETLSLTCAVSGYSITSDYAWNWIRQPPGKGLEWIGYISYSGSTSYNPSLRSRVTISRDTSKNQFFLKLSSVTAADTAVYYCARRQVGLGFAYWGQGTLVTVSS
VL: DIQMTQSPSSLSASVGDRVTITCKASQDVSTAVAWYQQKPGKAPKLLIYSASYRYTGVPSRFSGSGSGTDFTFTISSLQPEDIATYYCQQHYSTPWTFGQGTKVEIK

From US20220396617A1
